What was measured:
[1] = target: chimeric V2R harboring the carboxy-terminal tail of the β2-adrenergic receptor (V2β2AR)
[2] = target: vasopressin type 2 receptor (V2R) (UniProt P30518)
[3] = target: vasopressin type 2 receptor (V2R) (UniProt P30518); remark: listed apart in the source

arginine vasopressin (AVP) (peptide)
potency of AVP for recruitment of Rluc-mGsq to early endosomes (EbBRET with rGFP-Rab5), cells expressing V2β2AR [1]: -7.82 LogEC50 | potency of AVP for recruitment of Rluc-mGsq to the plasma membrane (EbBRET with rGFP-CAAX), cells expressing V2β2AR [1]: -7.97 LogEC50 | transduction coefficient (operational model) of AVP for recruitment of Rluc-mGs to the plasma membrane, cells expressing V2β2AR [1]: 8.04 Logτ/Ka | transduction coefficient (operational model) of AVP for recruitment of Rluc-mGsq to early endosomes, cells expressing V2β2AR [1]: 7.91 Logτ/Ka

mini G protein mGs
AVP-induced maximal efficacy of the AVP dose-response of Rluc-mGs recruitment to early endosomes (EbBRET with rGFP-Rab5), parental HEK293 cells, 45 minutes [2]: 0.18 ΔEbBRET | AVP-induced maximal efficacy of the AVP dose-response of Rluc-mGs recruitment to early endosomes (EbBRET with rGFP-Rab5), Δβarr1/2 HEK293 cells, 45 minutes [2]: 0.074 ΔEbBRET | AVP-induced maximal efficacy of the AVP dose-response of Rluc-mGs recruitment to the plasma membrane (EbBRET with rGFP-CAAX), parental HEK293 cells, 10 minutes [2]: 0.324 ΔEbBRET | AVP-induced maximal efficacy of the AVP dose-response of Rluc-mGs recruitment to the plasma membrane (EbBRET with rGFP-CAAX), Δβarr1/2 HEK293 cells, 10 minutes [2]: 0.376 ΔEbBRET | AVP-mediated maximal efficacy of the AVP dose-response of Rluc-mGs recruitment to early endosomes (EbBRET with rGFP-Rab5), cells expressing V2β2AR [1]: 0.15 ΔEbBRET | AVP-mediated maximal efficacy of the AVP dose-response of Rluc-mGs recruitment to the plasma membrane (EbBRET with rGFP-CAAX), cells expressing V2β2AR [1]: 0.392 ΔEbBRET | AVP-mediated maximal efficacy of the AVP dose-response of Rluc-mGs recruitment to early endosomes (EbBRET with rGFP-Rab5), cells expressing V2R [3]: 0.167 ΔEbBRET | AVP-mediated maximal efficacy of the AVP dose-response of Rluc-mGs recruitment to the plasma membrane (EbBRET with rGFP-CAAX), cells expressing V2R [3]: 0.3 ΔEbBRET

mini G protein mGsq
AVP-induced maximal efficacy of the AVP dose-response of Rluc-mGsq recruitment to early endosomes (EbBRET with rGFP-Rab5), parental HEK293 cells, 45 minutes [2]: 0.05 ΔEbBRET | AVP-induced maximal efficacy of the AVP dose-response of Rluc-mGsq recruitment to early endosomes (EbBRET with rGFP-Rab5), Δβarr1/2 HEK293 cells, 45 minutes [2]: 0.024 ΔEbBRET | AVP-induced maximal efficacy of the AVP dose-response of Rluc-mGsq recruitment to the plasma membrane (EbBRET with rGFP-CAAX), parental HEK293 cells, 10 minutes [2]: 0.168 ΔEbBRET | AVP-induced maximal efficacy of the AVP dose-response of Rluc-mGsq recruitment to the plasma membrane (EbBRET with rGFP-CAAX), Δβarr1/2 HEK293 cells, 10 minutes [2]: 0.18 ΔEbBRET | AVP-mediated maximal efficacy of the AVP dose-response of Rluc-mGsq recruitment to early endosomes (EbBRET with rGFP-Rab5), cells expressing V2β2AR [1]: 0.061 ΔEbBRET | AVP-mediated maximal efficacy of the AVP dose-response of Rluc-mGsq recruitment to the plasma membrane (EbBRET with rGFP-CAAX), cells expressing V2β2AR [1]: 0.183 ΔEbBRET | AVP-mediated maximal efficacy of the AVP dose-response of Rluc-mGsq recruitment to early endosomes (EbBRET with rGFP-Rab5), cells expressing V2R [3]: 0.05 ΔEbBRET | AVP-mediated maximal efficacy of the AVP dose-response of Rluc-mGsq recruitment to the plasma membrane (EbBRET with rGFP-CAAX), cells expressing V2R [3]: 0.161 ΔEbBRET

Reference: paper doi:10.1101/2023.04.01.535208
